± gives the uncertainty stated by the source.
Assay: self-splicing fitness, log relative to wild type (ln ratio); higher = more splicing; Tetrahymena group I intron in knt gene, E. coli kanamycin selection, DiMSum; sequences stand for … in CUCUCU…GGAGGGAAAAGUUAUCAGGCAUGCACCUGGUAGCUAGUCUUUAAACCAAUAGAUUGCAUCGGUUUAAAAGGCAAGACCGUCAAAUUGCGGGAAAGGGGUCAACAGCCGUUCAGUACCAAGUCUCAGGGGAAACUUUGAGAUGGCCUUGCAAAGGGUAUGGUAAUAAGCUGACGGACAUGGUCCUAACCACGCAGCCAAGUCCUAAGUCAACAGAUCUUCUGUUGAUAUGGAUGCAGUUCACAGACUAAAUGUCGGUCGGGGAAGAUGUAUUCUUCUCAUAAGAUAUAGUCGGACCUCUCCUUAAUGGGAGCUAGCGGAUGAAGUGAUGCAACACUGGAGCCGCUGGGAACUAAUUUGUAUGCGAAAGUAUAUUGAUUAGUUUUGGAGUACUCGUGGUCG
In short: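 DiMSum derived fitness as the error-weighted combination of fold changes across replicates, kanamycin versus no kanamycin, normalised to wild type. E. coli BL21(DE3) held the library, which randomised all eight P1ex-region intron nucleotides within the knt kanamycin-resistance gene on pET-22b(+). Six replicate transformations grew overnight at 37°C or 30°C on LB agar with or without 25 μg/mL kanamycin, also containing 100 μg/mL carbenicillin, 50 μM IPTG and 0.2% rhamnose, and pooled colonies were amplicon-sequenced on an Illumina HiSeq 2500.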

Row | Sequence | self-splicing fitness (ln) (30 °C) | self-splicing fitness (ln) (37 °C)
1 | AUCCAGCAAUAUUACGCGCU | -3.57 ± 0.22 | -2.37 ± 0.22
2 | AUCCAGCAAUAUUACGCGUU | -1.06 ± 0.087 | -0.503 ± 0.1
3 | AUCCAGCAAUAUUACGGCAC | -0.153 ± 0.085 | -0.31 ± 0.099
4 | AUCCAGCAAUAUUACGGGAU | -3.75 ± 0.28 | -2.9 ± 0.36
5 | AUCCAGCAAUAUUACGGGUG | -1.18 ± 0.049 | -0.904 ± 0.061
6 | AUCCAGCAAUAUUACGUAUG | -3.79 ± 0.2 | -2.05 ± 0.16
7 | AUCCAGCAAUAUUACGUCAA | -1.99 ± 0.1 | -1.54 ± 0.098
8 | AUCCAGCAAUAUUACGUCCA | -1.22 ± 0.11 | -0.412 ± 0.12
9 | AUCCAGCAAUAUUACGUGAA | -0.631 ± 0.049 | -0.212 ± 0.072
10 | AUCCAGCAAUAUUACGUUAA | -1.79 ± 0.11 | -1.1 ± 0.12
11 | AUCCAGCAAUAUUACGUUCU | -1.64 ± 0.096 | -1.39 ± 0.13
12 | AUCCAGCAAUAUUACGUUGU | -3.92 ± 0.12 | -2.09 ± 0.093
13 | AUCGAGCAAUAUUACGACGC | -1.28 ± 0.094 | -0.674 ± 0.12
14 | AUCGAGCAAUAUUACGAGCU | -2.36 ± 0.4 | –
15 | AUCGAGCAAUAUUACGAUCA | – | -0.193 ± 0.26
16 | AUCGAGCAAUAUUACGCCUA | – | -2.39 ± 0.32
17 | AUCGAGCAAUAUUACGCCUU | -1.74 ± 0.16 | -1.72 ± 0.21
18 | AUCGAGCAAUAUUACGCGAA | -1.68 ± 0.2 | -0.699 ± 0.2
19 | AUCGAGCAAUAUUACGCGAC | -1.15 ± 0.22 | -2.55 ± 0.4
20 | AUCGAGCAAUAUUACGCGAG | -2.32 ± 0.2 | -1.4 ± 0.14
21 | AUCGAGCAAUAUUACGCGAU | -2.06 ± 0.27 | –
22 | AUCGAGCAAUAUUACGCGCU | -2.97 ± 0.26 | -2.87 ± 0.36
23 | AUCGAGCAAUAUUACGCGGG | -2.23 ± 0.24 | -1.21 ± 0.29
24 | AUCGAGCAAUAUUACGCGUC | -2.85 ± 0.21 | -2.7 ± 0.43
25 | AUCGAGCAAUAUUACGCGUG | -2.55 ± 0.13 | -1.2 ± 0.14

Row | Sequence | self-splicing fitness (ln) (30 °C) | self-splicing fitness (ln) (37 °C)
26 | AUCGAGCAAUAUUACGCUUC | – | -3.02 ± 0.44
27 | AUCGAGCAAUAUUACGCUUG | -2.41 ± 0.18 | -1.1 ± 0.3
28 | AUCGAGCAAUAUUACGGAGG | -1.89 ± 0.39 | -0.942 ± 0.25
29 | AUCGAGCAAUAUUACGGAUC | -3.66 ± 0.41 | -1.38 ± 0.32
30 | AUCGAGCAAUAUUACGGAUU | -3.48 ± 0.22 | -1.26 ± 0.17
31 | AUCGAGCAAUAUUACGGUGA | -2.39 ± 0.12 | -2.25 ± 0.15
32 | AUCGAGCAAUAUUACGUAAA | -3.43 ± 0.3 | -1.53 ± 0.29
33 | AUCGAGCAAUAUUACGUACG | – | -2.07 ± 0.27
34 | AUCGAGCAAUAUUACGUACU | -1.09 ± 0.15 | -0.28 ± 0.17
35 | AUCGAGCAAUAUUACGUGAC | -3.54 ± 0.26 | -2.91 ± 0.29
36 | AUCGAGCAAUAUUACGUUGC | -2.95 ± 0.29 | -1.7 ± 0.27
37 | AUCGAGCAAUAUUACGUUUU | -4.86 ± 0.36 | -1.23 ± 0.12
38 | AUCUAGCAAUAUUACGACAG | -3.33 ± 0.3 | -2.68 ± 0.31
39 | AUCUAGCAAUAUUACGACGG | -2.58 ± 0.33 | -2.23 ± 0.42
40 | AUCUAGCAAUAUUACGAUAU | -1.15 ± 0.076 | -0.605 ± 0.1
41 | AUCUAGCAAUAUUACGAUGU | -0.781 ± 0.08 | -0.0281 ± 0.11
42 | AUCUAGCAAUAUUACGAUUA | -0.971 ± 0.11 | -0.836 ± 0.11
43 | AUCUAGCAAUAUUACGCACC | -0.201 ± 0.21 | -0.886 ± 0.38
44 | AUCUAGCAAUAUUACGCCGA | -0.962 ± 0.17 | -0.198 ± 0.19
45 | AUCUAGCAAUAUUACGCGCA | -0.448 ± 0.1 | -0.485 ± 0.11
46 | AUCUAGCAAUAUUACGCGUG | -1.23 ± 0.1 | -1.01 ± 0.12
47 | AUCUAGCAAUAUUACGCUAU | -3.15 ± 0.21 | -1.49 ± 0.14
48 | AUCUAGCAAUAUUACGGAUG | -2.12 ± 0.12 | 0.0806 ± 0.12
49 | AUCUAGCAAUAUUACGGGCU | -2.22 ± 0.16 | -2.49 ± 0.23
50 | AUCUAGCAAUAUUACGGUAG | -3.92 ± 0.28 | -2.13 ± 0.22

Row | Sequence | self-splicing fitness (ln) (30 °C) | self-splicing fitness (ln) (37 °C)
51 | AUCUAGCAAUAUUACGGUGC | -3.09 ± 0.22 | -1.4 ± 0.21
52 | AUCUAGCAAUAUUACGUAUG | -2.41 ± 0.13 | -1.55 ± 0.17
53 | AUCUAGCAAUAUUACGUCAG | -3.18 ± 0.2 | -2.34 ± 0.2
54 | AUCUAGCAAUAUUACGUCUC | -2.8 ± 0.26 | -0.391 ± 0.22
55 | AUCUAGCAAUAUUACGUGGC | -2.58 ± 0.23 | -2.92 ± 0.31
56 | AUCUAGCAAUAUUACGUGUC | -3.9 ± 0.36 | -2.64 ± 0.24
57 | AUCUAGCAAUAUUACGUUCC | -1.16 ± 0.18 | -1.47 ± 0.25
58 | AUGAAGCAAUAUUACGAAAU | -0.819 ± 0.07 | -0.46 ± 0.073
59 | AUGAAGCAAUAUUACGAAGC | -3.46 ± 0.18 | -1.89 ± 0.19
60 | AUGAAGCAAUAUUACGAAUU | -1.58 ± 0.084 | -1.25 ± 0.12
61 | AUGAAGCAAUAUUACGACGA | 0.221 ± 0.18 | 0.67 ± 0.15
62 | AUGAAGCAAUAUUACGACGU | 0.206 ± 0.076 | 0.735 ± 0.088
63 | AUGAAGCAAUAUUACGAUAU | -0.294 ± 0.066 | 0.229 ± 0.083
64 | AUGAAGCAAUAUUACGAUUG | -2.6 ± 0.13 | -1.24 ± 0.14
65 | AUGAAGCAAUAUUACGCACC | -0.272 ± 0.097 | 0.751 ± 0.18
66 | AUGAAGCAAUAUUACGCCAA | -0.427 ± 0.086 | 0.0636 ± 0.11
67 | AUGAAGCAAUAUUACGCCGG | -0.936 ± 0.11 | 0.108 ± 0.18
68 | AUGAAGCAAUAUUACGCCUG | -0.59 ± 0.092 | -0.209 ± 0.11
69 | AUGAAGCAAUAUUACGCCUU | -1.9 ± 0.16 | -1.01 ± 0.14
70 | AUGAAGCAAUAUUACGCUUG | -0.527 ± 0.09 | 0.363 ± 0.11
71 | AUGAAGCAAUAUUACGGACU | 0.892 ± 0.12 | 0.27 ± 0.1
72 | AUGAAGCAAUAUUACGGAGU | -1.4 ± 0.089 | -0.447 ± 0.094
73 | AUGAAGCAAUAUUACGGCAA | 0.00287 ± 0.12 | 0.0978 ± 0.14
74 | AUGAAGCAAUAUUACGGCAC | -0.455 ± 0.086 | 0.222 ± 0.14
75 | AUGAAGCAAUAUUACGGCCA | 0.439 ± 0.11 | 0.466 ± 0.18

Row | Sequence | self-splicing fitness (ln) (30 °C) | self-splicing fitness (ln) (37 °C)
76 | AUGAAGCAAUAUUACGGGAC | -2.09 ± 0.32 | -1.65 ± 0.43
77 | AUGAAGCAAUAUUACGGGCA | 0.212 ± 0.079 | 0.459 ± 0.09
78 | AUGAAGCAAUAUUACGGGUC | -3.75 ± 0.18 | -2.63 ± 0.23
79 | AUGAAGCAAUAUUACGGGUG | -1.81 ± 0.088 | -0.453 ± 0.098
80 | AUGAAGCAAUAUUACGGGUU | -1.62 ± 0.11 | -1.07 ± 0.12
81 | AUGAAGCAAUAUUACGUACG | -0.461 ± 0.13 | -0.446 ± 0.093
82 | AUGAAGCAAUAUUACGUCAC | -2.97 ± 0.26 | -1.09 ± 0.18
83 | AUGAAGCAAUAUUACGUCCG | -0.499 ± 0.062 | 0.309 ± 0.086
84 | AUGAAGCAAUAUUACGUCGA | -0.936 ± 0.1 | 0.22 ± 0.097
85 | AUGAAGCAAUAUUACGUGUA | -1.75 ± 0.082 | -0.686 ± 0.093
86 | AUGAAGCAAUAUUACGUUAG | -1.97 ± 0.08 | -0.415 ± 0.11
87 | AUGAAGCAAUAUUACGUUCU | -0.34 ± 0.076 | 0.201 ± 0.092
88 | AUGCAGCAAUAUUACGAAAG | -2.87 ± 0.23 | -3.15 ± 0.4
89 | AUGCAGCAAUAUUACGAACG | -1.7 ± 0.16 | -0.0769 ± 0.12
90 | AUGCAGCAAUAUUACGAUUC | -2.72 ± 0.14 | -0.939 ± 0.17
91 | AUGCAGCAAUAUUACGCCUC | -2.55 ± 0.2 | -1.35 ± 0.14
92 | AUGCAGCAAUAUUACGCGUC | -3.6 ± 0.2 | -3.05 ± 0.16
93 | AUGCAGCAAUAUUACGCGUU | -2.4 ± 0.088 | -2.7 ± 0.19
94 | AUGCAGCAAUAUUACGCUGC | -4.54 ± 0.2 | -3.94 ± 0.19
95 | AUGCAGCAAUAUUACGCUGU | -3.46 ± 0.21 | -2.63 ± 0.45
96 | AUGCAGCAAUAUUACGGGUG | -3.33 ± 0.14 | -1.62 ± 0.12
97 | AUGCAGCAAUAUUACGGUAC | -2.35 ± 0.095 | -1.52 ± 0.14
